Measurements: article PMC4643112, “Diversity of hydrolases from hydrothermal vent sediments of the Levante Bay, Vulcano Island (Aeolian archipelago) identified by activity-based metagenomics and biochemical characterization of new esterases and an arabinopyranosidase” (Applied Microbiology and Biotechnology, 2015)

Substrate: CCCC(=O)Oc1ccc([N+](=O)[O-])cc1
Test: colorimetric p-nitrophenol release
Format: biochemical, Rhodothermus profundi
Details: 50 mM potassium phosphate pH 7.0, 0.1 % Triton X-100, standard assay, substrate varied 1-40 mM as printed

B1: LIPESV12_26 (Rhodothermus profundi) (protein)
chain: MPHPTIQTVDLAYRSYGTEGPPLLILHGLLGSSGNWHTLARNAFSPHFRVFALDLRGHGRSPHAHPIDYPTMAADVQAFMDRHHLESAHVLGHSMGGKVAMELALSAPERVRRLVVVDIAPRSYPARHRTILDALQAIDPARYANRQAIDQALATYVPEAPIRQFLLKNLLYNPATRRYTWQVDLDGLVRYYDRINAAITDGRQFTGPVLFVRGARSDYLTEADWPTIRQLFPDACLATIPEAGHWVHADAPEAFAHLVLAFLQEKSGCVSSSKS
notes: full length, 275 residues, His6-tagged (pET-46c Ek/LIC), E. coli BL21(DE3); primers (translated) start MPHPTIQ, end VSSSKS; catalytic S94, D218, H245
Q: B1 was tested. Which Km did it give?
A: 100 µM
